Measurements taken from the Human Domainome abundance scans (Beltran et al. 2025).
± gives the uncertainty stated by the source.

B1: Homeobox protein cut-like 1, residues 941 to 1008; numbered along this chain, P39880 (parent)
chain: QEVDTIELTRQVKEKLAKNGICQRIFGEKVLGLSQGSVSDMLSRPKPWSKLTQKGREPFIRMQLWLNG

Variants of: B1
Assay: abundance fitness (aPCA) (normalised: wild type 0, dead -1); higher = more abundant; growth selection in yeast, the domain comes from the species named
Conditions: Homo sapiens

Variant	abundance fitness
QEVDTIELTRQVKEKLAKNGICQRIFGEKVLGLSQGSVSDMLSRPKPWSKLTQKGREPFIRMQLQLNG	-1.24 ± 0.21
QEVDTIELTRQVKEKLAKNGICQRIFGEKVLGLSQGSVSDMLSRPKPWSKLTQKGREPFIRMQLMLNG	-0.744 ± 0.08
QEVDTIELTRQVKEKLAKNGICQRIFGEKVLGLSQGSVSDMLSRPKPWSKLTQKGREPFIRMQLELNG	-0.968 ± 0.12
QEVDTIELTRQVKEKLAKNGICQRIFGEKVLGLSQGSVSDMLSRPKPWSKLTQKGREPFIRMQLILNG	-1.3 ± 0.21
QEVDTIELTRQVKEKLAKNGICQRIFGEKVLGLSQGSVSDMLSRPKPWSKLTQKGREPFIRMQRWLNG	0.103 ± 0.055
QEVDTIELTRQVKEKLAKNGICQRIFGEKVLGLSQGSVSDMLSRPKPWSKLTQKGREPFIRMQTWLNG	0.015 ± 0.061
QEVDTIELTRQVKEKLAKNGICQRIFGEKVLGLSQGSVSDMLSRPKPWSKLTQKGREPFIRMQVWLNG	-0.135 ± 0.049
QEVDTIELTRQVKEKLAKNGICQRIFGEKVLGLSQGSVSDMLSRPKPWSKLTQKGREPFIRMQFWLNG	-0.326 ± 0.099
QEVDTIELTRQVKEKLAKNGICQRIFGEKVLGLSQGSVSDMLSRPKPWSKLTQKGREPFIRMQIWLNG	-0.195 ± 0.12
QEVDTIELTRQVKEKLAKNGICQRIFGEKVLGLSQGSVSDMLSRPKPWSKLTQKGREPFIRMQEWLNG	0.185 ± 0.057
QEVDTIELTRQVKEKLAKNGICQRIFGEKVLGLSQGSVSDMLSRPKPWSKLTQKGREPFIRMQHWLNG	-0.137 ± 0.12
QEVDTIELTRQVKEKLAKNGICQRIFGEKVLGLSQGSVSDMLSRPKPWSKLTQKGREPFIRMQKWLNG	0.158 ± 0.064
QEVDTIELTRQVKEKLAKNGICQRIFGEKVLGLSQGSVSDMLSRPKPWSKLTQKGREPFIRMQGWLNG	-0.074 ± 0.06
QEVDTIELTRQVKEKLAKNGICQRIFGEKVLGLSQGSVSDMLSRPKPWSKLTQKGREPFIRMQMWLNG	-0.049 ± 0.067
QEVDTIELTRQVKEKLAKNGICQRIFGEKVLGLSQGSVSDMLSRPKPWSKLTQKGREPFIRMQCWLNG	-0.181 ± 0.1
QEVDTIELTRQVKEKLAKNGICQRIFGEKVLGLSQGSVSDMLSRPKPWSKLTQKGREPFIRMQPWLNG	-0.562 ± 0.074
QEVDTIELTRQVKEKLAKNGICQRIFGEKVLGLSQGSVSDMLSRPKPWSKLTQKGREPFIRMQQWLNG	0.144 ± 0.082
QEVDTIELTRQVKEKLAKNGICQRIFGEKVLGLSQGSVSDMLSRPKPWSKLTQKGREPFIRMQNWLNG	0.065 ± 0.096
QEVDTIELTRQVKEKLAKNGICQRIFGEKVLGLSQGSVSDMLSRPKPWSKLTQKGREPFIRMQSWLNG	0.068 ± 0.058
QEVDTIELTRQVKEKLAKNGICQRIFGEKVLGLSQGSVSDMLSRPKPWSKLTQKGREPFIRMQAWLNG	0.087 ± 0.06

Variant	abundance fitness
QEVDTIELTRQVKEKLAKNGICQRIFGEKVLGLSQGSVSDMLSRPKPWSKLTQKGREPFIRMQYWLNG	0.005 ± 0.1
QEVDTIELTRQVKEKLAKNGICQRIFGEKVLGLSQGSVSDMLSRPKPWSKLTQKGREPFIRMSLWLNG	-0.219 ± 0.055
QEVDTIELTRQVKEKLAKNGICQRIFGEKVLGLSQGSVSDMLSRPKPWSKLTQKGREPFIRMMLWLNG	-0.124 ± 0.069
QEVDTIELTRQVKEKLAKNGICQRIFGEKVLGLSQGSVSDMLSRPKPWSKLTQKGREPFIRMNLWLNG	-0.317 ± 0.11
QEVDTIELTRQVKEKLAKNGICQRIFGEKVLGLSQGSVSDMLSRPKPWSKLTQKGREPFIRMHLWLNG	0.041 ± 0.1
QEVDTIELTRQVKEKLAKNGICQRIFGEKVLGLSQGSVSDMLSRPKPWSKLTQKGREPFIRMDLWLNG	-0.389 ± 0.091
QEVDTIELTRQVKEKLAKNGICQRIFGEKVLGLSQGSVSDMLSRPKPWSKLTQKGREPFIRMGLWLNG	-0.098 ± 0.056
QEVDTIELTRQVKEKLAKNGICQRIFGEKVLGLSQGSVSDMLSRPKPWSKLTQKGREPFIRMPLWLNG	-0.724 ± 0.091
QEVDTIELTRQVKEKLAKNGICQRIFGEKVLGLSQGSVSDMLSRPKPWSKLTQKGREPFIRMKLWLNG	0.017 ± 0.072
QEVDTIELTRQVKEKLAKNGICQRIFGEKVLGLSQGSVSDMLSRPKPWSKLTQKGREPFIRMRLWLNG	0.012 ± 0.054
QEVDTIELTRQVKEKLAKNGICQRIFGEKVLGLSQGSVSDMLSRPKPWSKLTQKGREPFIRMTLWLNG	-0.184 ± 0.065
QEVDTIELTRQVKEKLAKNGICQRIFGEKVLGLSQGSVSDMLSRPKPWSKLTQKGREPFIRMWLWLNG	-0.032 ± 0.077
QEVDTIELTRQVKEKLAKNGICQRIFGEKVLGLSQGSVSDMLSRPKPWSKLTQKGREPFIRMALWLNG	-0.268 ± 0.051
QEVDTIELTRQVKEKLAKNGICQRIFGEKVLGLSQGSVSDMLSRPKPWSKLTQKGREPFIRMLLWLNG	-0.424 ± 0.052
QEVDTIELTRQVKEKLAKNGICQRIFGEKVLGLSQGSVSDMLSRPKPWSKLTQKGREPFIRMCLWLNG	-0.441 ± 0.1
QEVDTIELTRQVKEKLAKNGICQRIFGEKVLGLSQGSVSDMLSRPKPWSKLTQKGREPFIRMFLWLNG	-0.258 ± 0.099
QEVDTIELTRQVKEKLAKNGICQRIFGEKVLGLSQGSVSDMLSRPKPWSKLTQKGREPFIRMELWLNG	-0.272 ± 0.061
QEVDTIELTRQVKEKLAKNGICQRIFGEKVLGLSQGSVSDMLSRPKPWSKLTQKGREPFIRMILWLNG	-0.2 ± 0.099
QEVDTIELTRQVKEKLAKNGICQRIFGEKVLGLSQGSVSDMLSRPKPWSKLTQKGREPFIRMVLWLNG	-0.262 ± 0.056
QEVDTIELTRQVKEKLAKNGICQRIFGEKVLGLSQGSVSDMLSRPKPWSKLTQKGREPFIRMYLWLNG	-0.069 ± 0.087
